Results: PMC7098639

Tests used:
Experiment in all cases: FRET or BRET; biosensor lysate at three concentrations (200,000, 400,000 and 800,000 RLU) incubated with VEGF ranges adjusted for each biosensor; Delta eBRET2 ratio against the biosensor without VEGF
[1] = target: eBRET2 VEGF biosensor Re02 (Rluc8 - VEGF receptor 1 domain 3 - GFP2) (human)
[2] = target: eBRET2 VEGF biosensor Re09 (Rluc8 - VEGF receptor 1 domain 2 - VEGF receptor 2 domain 3 - GFP2) (human)
[3] = target: eBRET2 VEGF biosensor Re06 (Rluc8 - VEGF receptor 2 domain 3 - GFP2) (human)
Sequence of eBRET2 VEGF biosensor Re06 (Rluc8 - VEGF receptor 2 domain 3 - GFP2) (human) (P35968 20-764): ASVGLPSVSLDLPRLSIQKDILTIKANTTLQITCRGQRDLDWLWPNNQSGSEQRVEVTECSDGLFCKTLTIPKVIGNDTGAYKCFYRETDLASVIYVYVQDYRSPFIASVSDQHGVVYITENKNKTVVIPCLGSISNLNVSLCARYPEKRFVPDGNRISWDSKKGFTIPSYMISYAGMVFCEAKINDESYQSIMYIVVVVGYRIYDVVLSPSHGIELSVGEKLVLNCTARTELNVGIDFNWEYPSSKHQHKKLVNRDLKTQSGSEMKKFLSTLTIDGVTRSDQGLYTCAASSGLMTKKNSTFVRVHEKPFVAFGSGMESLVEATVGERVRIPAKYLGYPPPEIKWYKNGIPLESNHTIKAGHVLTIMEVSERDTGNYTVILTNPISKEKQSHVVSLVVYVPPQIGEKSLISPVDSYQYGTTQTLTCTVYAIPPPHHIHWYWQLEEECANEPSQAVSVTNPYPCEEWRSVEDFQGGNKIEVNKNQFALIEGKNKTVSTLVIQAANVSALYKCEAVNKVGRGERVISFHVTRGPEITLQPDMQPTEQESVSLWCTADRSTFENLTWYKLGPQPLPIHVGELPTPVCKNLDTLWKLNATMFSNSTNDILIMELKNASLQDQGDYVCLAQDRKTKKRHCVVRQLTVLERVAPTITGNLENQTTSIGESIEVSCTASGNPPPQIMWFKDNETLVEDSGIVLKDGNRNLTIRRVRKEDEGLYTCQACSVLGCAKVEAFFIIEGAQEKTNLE

[4] = target: eBRET2 VEGF biosensor Re07 (Rluc8 - VEGF receptor 2 domains 2 and 3 - GFP2) (human)
Sequence of eBRET2 VEGF biosensor Re07 (Rluc8 - VEGF receptor 2 domains 2 and 3 - GFP2) (human) (P35968 20-764): as above

Sequence of eBRET2 VEGF biosensor Re02 (Rluc8 - VEGF receptor 1 domain 3 - GFP2) (human) (P17948 27-758): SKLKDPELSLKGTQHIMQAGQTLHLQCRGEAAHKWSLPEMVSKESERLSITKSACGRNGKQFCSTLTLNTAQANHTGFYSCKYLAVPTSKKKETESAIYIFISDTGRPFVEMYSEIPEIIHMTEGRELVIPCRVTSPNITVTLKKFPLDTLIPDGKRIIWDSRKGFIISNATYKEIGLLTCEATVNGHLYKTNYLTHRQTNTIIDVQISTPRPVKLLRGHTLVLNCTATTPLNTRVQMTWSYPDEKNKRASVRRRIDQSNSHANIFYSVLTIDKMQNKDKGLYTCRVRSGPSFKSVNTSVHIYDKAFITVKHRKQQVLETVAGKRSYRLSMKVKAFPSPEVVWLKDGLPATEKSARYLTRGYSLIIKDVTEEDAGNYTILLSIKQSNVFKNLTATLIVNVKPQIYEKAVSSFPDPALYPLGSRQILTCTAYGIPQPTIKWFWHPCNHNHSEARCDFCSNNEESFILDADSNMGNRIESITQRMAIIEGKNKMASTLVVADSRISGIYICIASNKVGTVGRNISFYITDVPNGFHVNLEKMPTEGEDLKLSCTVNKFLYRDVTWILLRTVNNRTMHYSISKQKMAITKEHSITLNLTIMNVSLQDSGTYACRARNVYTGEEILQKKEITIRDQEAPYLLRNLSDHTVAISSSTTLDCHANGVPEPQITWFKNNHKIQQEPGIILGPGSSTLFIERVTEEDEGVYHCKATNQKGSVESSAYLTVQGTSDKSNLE

- Delta eBRET2 ratio (ΔBR) at 0.1 ng/ml VEGF, biosensor at 200,000 RLU [1]: 2.95 mBU
- Delta eBRET2 ratio (ΔBR) at 100 ng/ml VEGF, biosensor at 200,000 RLU [1]: 42.5 mBU
- maximum Delta eBRET2 ratio (ΔBR) at 1 μg/ml VEGF, biosensor at 200,000 RLU [2]: 62.6 mBU
- maximum Delta eBRET2 ratio (ΔBR) at 1 μg/ml VEGF, biosensor at 800,000 RLU [2]: 100 mBU
- Delta eBRET2 ratio (ΔBR) at 1000 pg/ml VEGF, biosensor at 200,000 RLU [3]: 41 mBU
- maximum Delta eBRET2 ratio (ΔBR) at 1000 pg/ml VEGF, biosensor at 400,000 RLU [3]: 106 mBU
- maximum Delta eBRET2 ratio (ΔBR) at 4 ng/ml VEGF, biosensor at 400,000 RLU [4]: 27.7 mBU
Substance: recombinant human VEGF (Active Max VEGF-A165) (ligand)
